Publication PMC6940849, “Structure-Based Redesign of a Self-Sufficient Flavin-Containing Monooxygenase towards Indigo Production” (International Journal of Molecular Sciences, 2019)

B1: *mFMO (PTDH-*mFMO; mFMO M15L/S23A) (Methylophaga thalassica; M15L/S23A/W319A) (protein)
chain: MATRIAILGAGPSGLAQLRAFQAAQEKGAEIPELVCFEKQADWGGQWNYTWRTGLDENGEPVHSSMYRYLWSNGPKECLEFADYTFDEHFGKPIASYPPREVLWDYIKGRVEKAGVRKYIRFNTAVRHVEFNEDSQTFTVTVQDHTTDTIYSEEFDYVVCCTGHFSTPYVPEFEGFEKFGGRILHAHDFRDALEFKDKTVLLVGSSYSAEDIGSQCYKYGAKKLISCYRTAPMGYKWPENWDERPNLVRVDTENAYFADGSSEKVDAIILCTGYIHHFPFLNDDLRLVTNNRLWPLNLYKGVVWEDNPKFFYIGMQDQAYSFNMFDAQAWYARDVIMGRLPLPSKEEMKADSMAWREKELTLVTAEEMYTYQGDYIQNLIDMTDYPSFDIPATNKTFLEWKHHKKENIMTFRDHSYRSLMTGTMAPKHHTPWIDALDDSLEAYLSDKSEIPVAKEA
notes: N-terminal fusion to phosphite dehydrogenase (PTDH, cofactor regeneration; pCRE3-mFMO), Ni-Sepharose purified from E. coli NEB10beta
B2: *mFMO (PTDH-*mFMO; mFMO M15L/S23A) (Methylophaga thalassica; M15L/S23A/Y207W) (protein)
chain: MATRIAILGAGPSGLAQLRAFQAAQEKGAEIPELVCFEKQADWGGQWNYTWRTGLDENGEPVHSSMYRYLWSNGPKECLEFADYTFDEHFGKPIASYPPREVLWDYIKGRVEKAGVRKYIRFNTAVRHVEFNEDSQTFTVTVQDHTTDTIYSEEFDYVVCCTGHFSTPYVPEFEGFEKFGGRILHAHDFRDALEFKDKTVLLVGSSWSAEDIGSQCYKYGAKKLISCYRTAPMGYKWPENWDERPNLVRVDTENAYFADGSSEKVDAIILCTGYIHHFPFLNDDLRLVTNNRLWPLNLYKGVVWEDNPKFFYIGMQDQWYSFNMFDAQAWYARDVIMGRLPLPSKEEMKADSMAWREKELTLVTAEEMYTYQGDYIQNLIDMTDYPSFDIPATNKTFLEWKHHKKENIMTFRDHSYRSLMTGTMAPKHHTPWIDALDDSLEAYLSDKSEIPVAKEA
notes: as for B1
B3: *mFMO (PTDH-*mFMO; mFMO M15L/S23A) (Methylophaga thalassica; M15L/S23A/W319F) (protein)
chain: MATRIAILGAGPSGLAQLRAFQAAQEKGAEIPELVCFEKQADWGGQWNYTWRTGLDENGEPVHSSMYRYLWSNGPKECLEFADYTFDEHFGKPIASYPPREVLWDYIKGRVEKAGVRKYIRFNTAVRHVEFNEDSQTFTVTVQDHTTDTIYSEEFDYVVCCTGHFSTPYVPEFEGFEKFGGRILHAHDFRDALEFKDKTVLLVGSSYSAEDIGSQCYKYGAKKLISCYRTAPMGYKWPENWDERPNLVRVDTENAYFADGSSEKVDAIILCTGYIHHFPFLNDDLRLVTNNRLWPLNLYKGVVWEDNPKFFYIGMQDQFYSFNMFDAQAWYARDVIMGRLPLPSKEEMKADSMAWREKELTLVTAEEMYTYQGDYIQNLIDMTDYPSFDIPATNKTFLEWKHHKKENIMTFRDHSYRSLMTGTMAPKHHTPWIDALDDSLEAYLSDKSEIPVAKEA
notes: as for B1
B4: *mFMO (PTDH-*mFMO; mFMO M15L/S23A) (Methylophaga thalassica; C78A/M15L/S23A) (protein)
chain: MATRIAILGAGPSGLAQLRAFQAAQEKGAEIPELVCFEKQADWGGQWNYTWRTGLDENGEPVHSSMYRYLWSNGPKEALEFADYTFDEHFGKPIASYPPREVLWDYIKGRVEKAGVRKYIRFNTAVRHVEFNEDSQTFTVTVQDHTTDTIYSEEFDYVVCCTGHFSTPYVPEFEGFEKFGGRILHAHDFRDALEFKDKTVLLVGSSYSAEDIGSQCYKYGAKKLISCYRTAPMGYKWPENWDERPNLVRVDTENAYFADGSSEKVDAIILCTGYIHHFPFLNDDLRLVTNNRLWPLNLYKGVVWEDNPKFFYIGMQDQWYSFNMFDAQAWYARDVIMGRLPLPSKEEMKADSMAWREKELTLVTAEEMYTYQGDYIQNLIDMTDYPSFDIPATNKTFLEWKHHKKENIMTFRDHSYRSLMTGTMAPKHHTPWIDALDDSLEAYLSDKSEIPVAKEA
notes: as for B1
B5: *mFMO (PTDH-*mFMO; mFMO M15L/S23A) (Methylophaga thalassica; C78L/M15L/S23A) (protein)
chain: MATRIAILGAGPSGLAQLRAFQAAQEKGAEIPELVCFEKQADWGGQWNYTWRTGLDENGEPVHSSMYRYLWSNGPKELLEFADYTFDEHFGKPIASYPPREVLWDYIKGRVEKAGVRKYIRFNTAVRHVEFNEDSQTFTVTVQDHTTDTIYSEEFDYVVCCTGHFSTPYVPEFEGFEKFGGRILHAHDFRDALEFKDKTVLLVGSSYSAEDIGSQCYKYGAKKLISCYRTAPMGYKWPENWDERPNLVRVDTENAYFADGSSEKVDAIILCTGYIHHFPFLNDDLRLVTNNRLWPLNLYKGVVWEDNPKFFYIGMQDQWYSFNMFDAQAWYARDVIMGRLPLPSKEEMKADSMAWREKELTLVTAEEMYTYQGDYIQNLIDMTDYPSFDIPATNKTFLEWKHHKKENIMTFRDHSYRSLMTGTMAPKHHTPWIDALDDSLEAYLSDKSEIPVAKEA
notes: as for B1
B6: *mFMO (PTDH-*mFMO; mFMO M15L/S23A) (Methylophaga thalassica; M15L/S23A/W319A/Y207W) (protein)
chain: MATRIAILGAGPSGLAQLRAFQAAQEKGAEIPELVCFEKQADWGGQWNYTWRTGLDENGEPVHSSMYRYLWSNGPKECLEFADYTFDEHFGKPIASYPPREVLWDYIKGRVEKAGVRKYIRFNTAVRHVEFNEDSQTFTVTVQDHTTDTIYSEEFDYVVCCTGHFSTPYVPEFEGFEKFGGRILHAHDFRDALEFKDKTVLLVGSSWSAEDIGSQCYKYGAKKLISCYRTAPMGYKWPENWDERPNLVRVDTENAYFADGSSEKVDAIILCTGYIHHFPFLNDDLRLVTNNRLWPLNLYKGVVWEDNPKFFYIGMQDQAYSFNMFDAQAWYARDVIMGRLPLPSKEEMKADSMAWREKELTLVTAEEMYTYQGDYIQNLIDMTDYPSFDIPATNKTFLEWKHHKKENIMTFRDHSYRSLMTGTMAPKHHTPWIDALDDSLEAYLSDKSEIPVAKEA
notes: as for B1
B7: *mFMO (PTDH-*mFMO; mFMO M15L/S23A) (Methylophaga thalassica; C78V/M15L/S23A) (protein)
chain: MATRIAILGAGPSGLAQLRAFQAAQEKGAEIPELVCFEKQADWGGQWNYTWRTGLDENGEPVHSSMYRYLWSNGPKEVLEFADYTFDEHFGKPIASYPPREVLWDYIKGRVEKAGVRKYIRFNTAVRHVEFNEDSQTFTVTVQDHTTDTIYSEEFDYVVCCTGHFSTPYVPEFEGFEKFGGRILHAHDFRDALEFKDKTVLLVGSSYSAEDIGSQCYKYGAKKLISCYRTAPMGYKWPENWDERPNLVRVDTENAYFADGSSEKVDAIILCTGYIHHFPFLNDDLRLVTNNRLWPLNLYKGVVWEDNPKFFYIGMQDQWYSFNMFDAQAWYARDVIMGRLPLPSKEEMKADSMAWREKELTLVTAEEMYTYQGDYIQNLIDMTDYPSFDIPATNKTFLEWKHHKKENIMTFRDHSYRSLMTGTMAPKHHTPWIDALDDSLEAYLSDKSEIPVAKEA
notes: as for B1
B8: *mFMO (PTDH-*mFMO; mFMO M15L/S23A) (Methylophaga thalassica; C78I/M15L/S23A) (protein)
chain: MATRIAILGAGPSGLAQLRAFQAAQEKGAEIPELVCFEKQADWGGQWNYTWRTGLDENGEPVHSSMYRYLWSNGPKEILEFADYTFDEHFGKPIASYPPREVLWDYIKGRVEKAGVRKYIRFNTAVRHVEFNEDSQTFTVTVQDHTTDTIYSEEFDYVVCCTGHFSTPYVPEFEGFEKFGGRILHAHDFRDALEFKDKTVLLVGSSYSAEDIGSQCYKYGAKKLISCYRTAPMGYKWPENWDERPNLVRVDTENAYFADGSSEKVDAIILCTGYIHHFPFLNDDLRLVTNNRLWPLNLYKGVVWEDNPKFFYIGMQDQWYSFNMFDAQAWYARDVIMGRLPLPSKEEMKADSMAWREKELTLVTAEEMYTYQGDYIQNLIDMTDYPSFDIPATNKTFLEWKHHKKENIMTFRDHSYRSLMTGTMAPKHHTPWIDALDDSLEAYLSDKSEIPVAKEA
notes: as for B1
B9: *mFMO (PTDH-*mFMO; mFMO M15L/S23A) (Methylophaga thalassica; C78I/M15L/S23A/W319A/Y207W) (protein)
chain: MATRIAILGAGPSGLAQLRAFQAAQEKGAEIPELVCFEKQADWGGQWNYTWRTGLDENGEPVHSSMYRYLWSNGPKEILEFADYTFDEHFGKPIASYPPREVLWDYIKGRVEKAGVRKYIRFNTAVRHVEFNEDSQTFTVTVQDHTTDTIYSEEFDYVVCCTGHFSTPYVPEFEGFEKFGGRILHAHDFRDALEFKDKTVLLVGSSWSAEDIGSQCYKYGAKKLISCYRTAPMGYKWPENWDERPNLVRVDTENAYFADGSSEKVDAIILCTGYIHHFPFLNDDLRLVTNNRLWPLNLYKGVVWEDNPKFFYIGMQDQAYSFNMFDAQAWYARDVIMGRLPLPSKEEMKADSMAWREKELTLVTAEEMYTYQGDYIQNLIDMTDYPSFDIPATNKTFLEWKHHKKENIMTFRDHSYRSLMTGTMAPKHHTPWIDALDDSLEAYLSDKSEIPVAKEA
notes: as for B1
B10: *mFMO (PTDH-*mFMO; mFMO M15L/S23A) (Methylophaga thalassica; M15L/S23A) (protein)
chain: MATRIAILGAGPSGLAQLRAFQAAQEKGAEIPELVCFEKQADWGGQWNYTWRTGLDENGEPVHSSMYRYLWSNGPKECLEFADYTFDEHFGKPIASYPPREVLWDYIKGRVEKAGVRKYIRFNTAVRHVEFNEDSQTFTVTVQDHTTDTIYSEEFDYVVCCTGHFSTPYVPEFEGFEKFGGRILHAHDFRDALEFKDKTVLLVGSSYSAEDIGSQCYKYGAKKLISCYRTAPMGYKWPENWDERPNLVRVDTENAYFADGSSEKVDAIILCTGYIHHFPFLNDDLRLVTNNRLWPLNLYKGVVWEDNPKFFYIGMQDQWYSFNMFDAQAWYARDVIMGRLPLPSKEEMKADSMAWREKELTLVTAEEMYTYQGDYIQNLIDMTDYPSFDIPATNKTFLEWKHHKKENIMTFRDHSYRSLMTGTMAPKHHTPWIDALDDSLEAYLSDKSEIPVAKEA
notes: as for B1

The proteins below were run on c1ccc2[nH]ccc2c1 (assay: purified protein). Conditions: NADPH; indole up to 1.6 mM.
Type: biochemical, Methylophaga thalassica
B1 gave a Km of 900 µM and a kcat of 0.42 s⁻¹. With B2 the Km was 100 µM and the kcat was 0.31 s⁻¹. B3 gave a Km of 400 µM and a kcat of 0.64 s⁻¹. For B4, the Km was 400 µM and the kcat was 0.79 s⁻¹. For B5, the Km was 800 µM and the kcat was 0.7 s⁻¹. Work on B6 yielded a Km of 800 µM and a kcat of 0.8 s⁻¹. For B7, the Km was 700 µM and the kcat was 1.04 s⁻¹. For B8, the Km was 800 µM and the kcat was 1.28 s⁻¹. For B9, the Km was 800 µM and the kcat was 0.93 s⁻¹.

Same assay, conditions: NADPH; indole up to 1.6 mM; listed as printed as WT, table title says *mFMO
B10 gave a Km of 400 µM and a kcat of 0.85 s⁻¹.
